From the DeepSol protein solubility set

Test: soluble on expression in E. coli; label from the status in PepcDB or PDB records

Sequence	soluble on expression in E. coli
MAGIAMKLAKDREAAEGLGSHERAIKYLNQDYETLRNECLEAGALFQDPSFPALPSSLGFKELGPYSSKTRGIEWKRPTEICADPQFIIGGATRTDICQGALGDSWLLAAIASLTLNEEILARVVPLDQSFQENYAGIFHFQFWQYGEWVEVVVDDRLPTKDGELLFVHSAEGSEFWSALLEKAYAKINGCYEALSGGATTEGFEDFTGGIAEWYELRKPPPNLFKIIQKALEKGSLLGCSIDITSAADSEAVTYQKLVKGHAYSVTGAEEVESSGSLQKLIRIRNPWGQVEWTGKWNDNCPSWNTVDPEVRANLTERQEDGEFWMSFSDFLRHYSRLEICNLTPDTLTCDSYKKWKLTKMDGNWRRGSTAGGCRNYPNTFWMNPQYLIKLEEEDEDDEDGERGCTFLVGLIQKHRRRQRKMGEDMHTIGFGIYEVPEELTGQTNIHLSKNFFLTTRARERSDTFINLREVLNRFKLPPGEYVLVPSTFEPHKNGDFCIRVFSEKKADYQTVDDEIEANIEEIEANEEDIGDGFRRLFAQLAGEDAEISAFELQTILRRVLAKREDIKSDGFSIETCKIMVDMLDEDGSGKLGLKEFYILWTKIQKYQKIYREIDVDRSGTMNSYEMRKALEEAGFKLPCQLHQVIVARFADDELIIDFDNFVRCLVRLEILFKIFKQLDPENTGTIQLDLISWLSFSVLGKLAAALEHHHHHH	soluble
MSLRYIYFFGRKINLSERDKIFRDITSKYKCIHDLRCAFDHTEISSFENIDFNIIDDYLFYIELNEKSYTFNDGISLMVQERFWEAHEALEQLWRHSNGLEKSTLRFIIMVCTAFVHLQRGHYSIYHEVMENALKIDTYNEYKCINIKSLKSEIRSGIFNTYFFIKSLKEGHHHHHH	soluble
MDIWYGTAAVPKDLDNSAVTIGVFDGVHRGHQKLINATVEKAREVGAKAIMVTFDPHPVSVFLPRRAPLGITTLAERFALAESFGIDGVLVIDFTRELSGTSPEKYVEFLLEDTLHASHVVVGANFTFGENAAGTADSLRQICQSRLTVDVIDLLDDEGVRISSTTVREFLSEGDVARANWALGRHFYVTGPVVRGAGRGGKELGFPTANQYFHDTVALPADGVYAGWLTILPTEAPVSGNMEPEVAYAAAISVGTNPTFGDEQRSVESFVLDRDADLYGHDVKVEFVDHVRAMEKFDSVEQLLEVMAKDVQKTRTLLAQDVQAHKMAPETYFLQAES	soluble
DSTFTNISLADDIDHSSRILYPRPKSLLPKMMNADMDVDAENQVELEEKTRLINQVLELQHTLEDLSARVDAVKEENLKLKSENQVLGQYIENLMSASSVFQTTDTKSKRK	not soluble
MSLNAGKVVQTAKLFQDIHPEERLEKTLVDDRFAALREVIAGRTDGGQSGGGTMQIASLLTMLNEYYTQLTIADSALAAGTLPARITAADKLQLEAAKLPAPLKNILLDLTKQGTRKINAGTGDVLNTQMEAMMGDDCRDAIDGRYPFADSPQEVSAEDFNRIFASGGVLDAFWSKQLAPLADTASDPWRYKPTEGNMTLQGPDLTPFQQAKQIRSVFFNSEGGKKFSWSMQISVVDMDPAIMELVIDIDGQVLRYAHGPDRPLKVTWPGPRNGSMAEITASPRIRQDTSTLLTGGPWALFHLLDAGMVQETAVRGRQLVEYDFDGRRVVLEITAGRDFNPVSRELLQNFSCPARALEGHHHHHH	not soluble
MGSDKIHHHHHHMPEKLDTVLGYLKEFPDYYKYVTKKTYTVNEKIIFEDEKAKSIFFIVEGYAAVELEDNLRKTNYISIFVLPYNVLGIDAFSSYPKKKHSITVMSEHLMLYKIDADFLLNILSIKPDVNDFLLTSIADVFARHYALLGMIAKTPKERIYMALENLAVEMGTEDEERNEIVLPNFINQSVLARYCRTTQPNISNLLTELVEEEFLVNKKSPYRIDKDSLDI	not soluble
MKRISTLFLLATLGLAAGTAQAAQPDAGLTGCAAKRSAIENQLKIARDHGNSDQVGGLEEALRGVDNCTDASLRKEREQKVLDARHEVAQREKDLKKAEKKGDAEKINKRKDKLAESRKELQEAVDALDR	not soluble
MGKYKFIEERVETMSSSELKIFLNILKSRSKELMSTLESVRGIKDLEAVCKSTQKLNNRVSEFDGGSFLILVVGPVKSGKSTLVNLIAHAHVSPTHFLECTVRPSIISKGQEESITRIFSVADKARKVEQFDSVIDSLRGFEKLENISEISIEKKELNDANLEECVSLALEESVINTDHTLVTSITTSGGELLKDNIFLVDMPGLDGGYVNLDNPIYETISQRADFVIFVQSSNSAISKVSNRFLKLLQENNPKVPVCLLHNVFEAAYWHSEEEKQAVIKAQVEFAENEMGRRNFQLKENIYSLNLGKVADAASYEGMEDLQEEAAKFQRFEKDLYGKVISNSTDIRLRSVIGRTLNQLEKLDNLVGESIGQQEAIDIEYQAAATSFDELLRQASELSYDGSDFRKMVQVYMDDDLKEFTEIVREYYDSGCNSAFAGGAKGKDATRSLVTKFMTDSSAAIKSKFLDSHEHSLARQYLRKLSNLKDDVAFIEKMNTFLKQKGCAPFDSVPQVTDFPVVDFDLQGAFDVKNINNPTVPHIGIPNPFGTYSTMEIQSFLRKAMECITGIDHTHTGKTIKGYLQLTVGKSIYKAANDLYDQYVPVRKQSIIDFLEQQKTMYLNALVSDKEEFDRKDALLRSINAQVQSFKDSIR	not soluble
SLSPAPTTMDFTPAPLEDTSSRPQFCKWPCECPPSPPRCPLGVSLITDGCECCKMCAQQLGDNCTEAAICDPHRGLYCDYSGDRPRYAIGVCAQVVGVGCVLDGVRYNNGQSFQPNCKYNCTCIDGAVGCTPLCLRVRPPRLWCPHPRRVSIPGHCCEQWVCEDDAKRPRKTAPRDTGAFDAVGEG	soluble
MGSDKIHHHHHHMDTQRGSLRGKAHKARLKMTPNGRRQLLLERGAAFSKNRTPGLKHVDRHTIVDSDGLSIHTYMVGHAENATATVVFIHGFTLAAEVYYMQVDYLQTFYPNIKSVLIDARGHGATGQIRPELCTIEGTANDVLAAIHEHAPTGPLILVGHSLGGLTALNLVKRADHSLRKRIVGMVLVATSIESLSTQGLPQVLASPLADNIKNAVEAAPNDAQKFRQYATTFLAPTLATAVFQRDTNDEVIDFHAAMIHETPLDTFVGFFDDLQEHDELDAAPALEGLKGYVLAGELDDVTPISQADRICEVWPGARLQIAEGAGHMLPLEAPGILNNAIGNILDGLG	not soluble
MKIISKEFTVKTRSRFDSIDITEQVSEAIKGINNGIAHVIVKHTTCAIIINEAESGLMKDFLNWAKKLVPPDGEFEHNIIDNNGHAHVISAIIGNSRVVPIIEGKLDLGTWQRIILLEFDGPRTRTVLVKSMGE	soluble
MANQCFNQAKAVLEFRLDPCHLPQTTTYFSSKTGNQMICSLSERGVFFKTDTFSSLSRLVPSYQFKGIAARTVITLSGEKAVALELLHANEESCVPLLVSRDLNNVLLDWRLWADTYSLPMLMINEDNRLVVVKDRSDLRRFFSTTLHFRKKRFLLRYRNPLGLRLMIANQVAL	not soluble
MSLAPRFTVTYFVRAADEAEAKARALDIALEQTVEIPRNVVPKGYVEDEILGRLESLLQDPEGRPGFLAAISYSEDDIGGDFLQFLNIVFGNSSIKPGIKVEDIGLSPGLLDLCKGPRHGIVGLRARAGIGEKPLLMSAIKPAGLSTTELARLAYDFALGGMHFVKDDHGLVDQKTAPFEERLKACIEAVGEANAKSGGRTSFVPNITGPATAIIERAKQAQEYGAGGVMIAPALAGYDIVRTLAADPDFSLPIVSHPAFSGANVVSPDCGFTHRAFFGTLHRLMGADAVVYPNFGGRFGFTREECQSIAKTCSVDMGGPKAIVAAPGGGMTFARIPEMREAYGNDIMYLVGGALLSEPDLVSACKRLVAATEEGHHHHHH	soluble
MGSDKIHHHHHHMSRPAITAIPVFKLYGETTAWPTPDLIHCESIPERSRMHDWEIKPHRHGDLVQLLYVQSGKAMLKVEDRVRKVETASLQVVPALSVHTFRFAEDIQGHILSLAKPLVEQLETTLDSSAMRTARCYELGADSHYVDTLFSAIAREYRQPRAGRDLMLHSLINVLVVWLSRRNSEEAGEQVQTMDRGREHLQVFMHQLETCFREHWSIEQHAQAMGISAAHLNALCRRLCDQSALQIISQRLLLEAKRNLIYTTLTINQVSDSLGFSEPAYFSRFFKRATGQSPREFRQQK	not soluble
MSLFFRDVIGQEEAKYRLIQEVSEGRIPHAQLFCGPEGVGKFPLALAYARYLSCTNRSDTDACGVCPSCVKFNKLVHPDVHFVFPVVKNGRSDDYIVEWRKLVLNNPYFTINHWLNEINAENAQAVIYTKESDEIMKKLSLKSSEGGFKITLLWLPEKMQQACANKLLKLLEEPPEKTIFLLVSEAPDLILQTILSRTQRFNLRKIEEECMAEALQSKYGVQQATSISIAHLANGNFIKALETIHLNEEGHHHHHH	soluble
MDYLTTNKIAWDARTRVHLTSDFYDVEGFLSGKISLTEIELNELAVAGKSLLHLQCHFGLDTLSWARMGAKVTGVDLSEVAIAEACKLAQQTQLSAEFICSDVYSVVGKVEPQDIVFTSYGAIVWLPDLTLWAQTIAACLKPGGQFYMAEFHPAQQLFDGYSYFNRGEPDIEQEGTYTENASDDQQTLMCWSHSLSEVINALLQAGLELVFFHEFAFSPYNCFEGLEAQADGRYVLIHQGQQVPLVYSISARKPVLEHHHHHH	soluble
MSLLLPANEQRPVVDIFVEGRRISAREGETIAAALLNAGIVPFRRTPVSGQPRAPLCLMGVCFECLVEVDGAQNVQSCMVRVNAGMQVGLPTGARRAGDGEGHHHHHH	not soluble
MRSRRGLLIVLSGPSGVGKGTVRKELFSHEDTRFQYSISVTTRKPREGEVDGVDYFFKEREEFEEMIRNEKLLEWAEFVGNYYGTPIDYVEKTLQEGKDVFLEIEVQGAIQVKKAFPEGVFIFLAPPSLSELKNRIVGRGTETEDVIENRLTVAKEEIDMMDAYDYVVENDQVELACERIKAIVVGEHCRRERVAKYYKEMTEGL	not soluble
TSGTLYLVGTPIGNLDDMTFRAIATLKNVDLIAAEDTRHTGKLLKHFQIATPQISYHDHNRHQRQAQLLEKLRSGLNIALVSDAGLPGISDPGFELVASAIDTEITVVPIPGV	not soluble
CDQFVTDALKTFENTYLNDHLPHDIHKNVMRMVNHEVSSFGVVTSAEDSYLGAVDENTLEQATWSFLKDLKRITDSDLKGELFIKELLWMLRHQKDIFNNLARQFQKEVLCPNKCGVMSQTLIWCLKCEKQLHICRKSLDCGERHIEVHRSEDLVLDCLLS	not soluble
HHHHHHMPIQVLPPQLANQIAAGEVVERPASVVKELVENSLDAGATRIDIDIERGGAKLIRIRDNGCGIKKDELALALARHATSKIASLDDLEAIISLGFRGEALASISSVSRLTLTSRTAEQQEAWQAYAEGRDMNVTVKPAAHPVGTTLEVLDLFYNTPARRKFLRTEKTEFNHIDEIIRRIALARFDVTINLSHNGKIVRQYRAVPEGGQKERRLGAICGTAFLEQALAIEWQHGDLTLRGWVADPNHTTPALAEIQYCYVNGRMMRDRLINHAIRQACEDKLGADQQPAFVLYLEIDPHQVDVNVHPAKHEVRFHQSRLVHDFIYQGVLSVLQQQLETPLPLDDEPQPAPR	soluble
MRTMIYKILTGCYIVAALVLVAACNDGLDIQTKYPFTVETMPVPKELKVNETAEIRCELKREGRWEDTRYTIRWFLFDGEGTLKLDDGTVLLPNDRYPLEKETFRLYYTPLSDEQSGFTVWVEDSDGQAVELEFDFNADNDKEDGYGTELEHHHHHH	soluble
